Experimental data: US20100183623A1 (INHIBITEX, published 2010)

Assays:
[1] = biological target: T1, SdrF N1N2N3 (52-679), His-tagged recombinant A domain of S. epidermidis SdrF (Staphylococcus epidermidis (K28 genomic …, UniProt Q9KI14 53-678)); assay: Biacore, mAb captured via RAM-Fc, SdrF injected
T1 construct: expressed in E. coli; also called SdrF A domain
T1 sequence: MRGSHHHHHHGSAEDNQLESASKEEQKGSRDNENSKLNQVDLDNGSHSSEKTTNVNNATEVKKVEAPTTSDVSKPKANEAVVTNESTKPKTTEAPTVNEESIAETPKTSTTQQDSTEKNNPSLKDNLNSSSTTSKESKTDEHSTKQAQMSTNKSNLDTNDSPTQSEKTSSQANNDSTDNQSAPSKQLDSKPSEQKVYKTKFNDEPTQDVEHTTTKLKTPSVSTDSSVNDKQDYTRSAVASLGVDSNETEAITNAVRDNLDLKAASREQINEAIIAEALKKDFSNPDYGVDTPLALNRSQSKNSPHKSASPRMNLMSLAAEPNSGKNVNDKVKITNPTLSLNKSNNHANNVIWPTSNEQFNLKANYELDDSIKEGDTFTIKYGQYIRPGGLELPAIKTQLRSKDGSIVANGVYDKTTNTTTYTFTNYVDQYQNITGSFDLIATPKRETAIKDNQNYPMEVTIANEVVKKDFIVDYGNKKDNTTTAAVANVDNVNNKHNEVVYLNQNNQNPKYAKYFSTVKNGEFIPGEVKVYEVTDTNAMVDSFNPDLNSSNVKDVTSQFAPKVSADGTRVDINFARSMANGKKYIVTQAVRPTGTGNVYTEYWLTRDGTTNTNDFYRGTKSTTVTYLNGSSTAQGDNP

[2] = biological target: T2, SdrF N3 (517-679), His-tagged recombinant fragment (Staphylococcus epidermidis (K28 genomic …, UniProt Q9KI14 517-678)); assay: ELISA, plate coated with SdrF N3
T2 construct: expressed in E. coli
T2 sequence: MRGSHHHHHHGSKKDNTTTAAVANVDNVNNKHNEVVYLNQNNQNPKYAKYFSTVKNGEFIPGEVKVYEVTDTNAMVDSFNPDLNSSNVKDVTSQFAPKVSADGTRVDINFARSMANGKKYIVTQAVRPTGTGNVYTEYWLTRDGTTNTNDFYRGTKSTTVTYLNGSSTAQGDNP

[3] = biological target: T1, SdrF N1N2N3 (52-679), His-tagged …; assay: ELISA, plate coated with SdrF N1N2N3, hybridoma supernatant
[4] = biological target: T1, SdrF N1N2N3 (52-679), His-tagged …; assay: Biacore 3000, mAb captured on anti-F(ab)2 chip, SdrF (N1N2N3) in flow
[5] = biological target: T3, SdrF N2N3 (361-679), His-tagged recombinant fragment (Staphylococcus epidermidis (K28 genomic …, UniProt Q9KI14 361-678)); assay: ELISA, plate coated with SdrF N2N3, hybridoma supernatant
T3 construct: expressed in E. coli
T3 sequence: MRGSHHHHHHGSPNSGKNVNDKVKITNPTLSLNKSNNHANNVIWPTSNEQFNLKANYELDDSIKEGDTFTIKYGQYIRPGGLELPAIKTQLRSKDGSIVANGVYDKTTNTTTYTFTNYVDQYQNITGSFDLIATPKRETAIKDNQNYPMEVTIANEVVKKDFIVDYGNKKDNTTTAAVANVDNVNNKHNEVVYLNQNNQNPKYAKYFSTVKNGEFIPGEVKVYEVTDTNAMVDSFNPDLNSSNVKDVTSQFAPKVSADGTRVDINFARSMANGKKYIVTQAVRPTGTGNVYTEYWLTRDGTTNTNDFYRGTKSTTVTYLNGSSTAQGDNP

[6] = biological target: T1, SdrF N1N2N3 (52-679), His-tagged …; assay: Biacore 3000, ligand capture of mAb, SdrF (N1N2N3) in flow
[7] = biological target: T4, SdrF N2 (361-517), His-tagged recombinant fragment (Staphylococcus epidermidis (K28 genomic …, UniProt Q8CMP4 361-517)); assay: ELISA, plate coated with SdrF N2
T4 construct: expressed in E. coli
T4 sequence: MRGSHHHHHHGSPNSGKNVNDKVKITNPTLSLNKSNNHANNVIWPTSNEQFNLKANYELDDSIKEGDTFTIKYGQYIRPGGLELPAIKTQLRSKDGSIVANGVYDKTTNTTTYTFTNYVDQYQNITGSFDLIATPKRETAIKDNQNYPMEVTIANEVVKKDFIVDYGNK

B1: murine anti-SdrF monoclonal antibody 108-36 (antibody, V domains shown)
VH: QVTLRESGPGILQPSQTLSLTCSFSGFSLNTSGMGVTWIRQPSGKGLEWLANIYWDDDKRYNPSLKSRLTISKANSRNQVFLKITSVDTADTATYYCTRPNYLGTVYWYFDVWGAGTMVTVSS
VL: QIVLTQSPAIMSASPGEKVTMTCSASSSVSYMYWYQQKPGSSPRVLIYDTSNLASGVPVRFSGSGSGTSYSLTISRMEAEDAATYYCQQWNGYPPTFGAGTKLEVK
notes: Mouse hybridoma antibody (fusion F108)
With B1 the “Biacore SdrF bound” value [1] was 146, the binding result [2] was “no binding” and the “ELISA OD405” value [3] was 0.77 OD405. The Ka [4] was 4.52e+09 M⁻¹, the Kd [4] was 0.221 nM and the koff [4] was 5.6e-05 s⁻¹. The kon [4] was 232000 M⁻¹ s⁻¹, the “ELISA OD405” value [5] was 0.72 OD405 and the Ka [6] was 4.5e+09 M⁻¹. For the same binder, the Kd [6] was 0.22 nM, the koff [6] was 5.6e-05 s⁻¹ and the kon [6] was 230000 M⁻¹ s⁻¹.

B2: Humanized 108-36 (antibody, V domains shown)
VH: QVTLRESGPGILKPSQTLSLTCTFSGFSLNTSGMGVTWIRQPSGKGLEWLANIYWDDDKRYNPSLKSRLTISKANSRNQVFLKITSVDPVDTATYYCTRPNYLGTVYWYFDVWGQGTMVTVSS
VL: EIVLTQSPATMSASPGERVTMSCSASSSVSYMYWYQQKPGQSPRVLIYDTSNLASGVPSRFSGSGSGTSYSLTISSMEPEDAATYYCQQWNGYPPTFGGGTKLEVK
modifications: N-linked carbohydrate chain on the asparagine at position 30 of the variable heavy chain
notes: Humanized (veneered) variable regions with 'the appropriate light or heavy chain constant region', expressed in NSO cells; also called Hu108-36
For B2, the Ka [6] was 2.2e+09 M⁻¹, the Kd [6] was 0.46 nM and the koff [6] was 6.3e-05 s⁻¹. It also gave a kon [6] of 140000 M⁻¹ s⁻¹.

B3: murine anti-SdrF monoclonal antibody 110-15 (antibody, V domains shown)
VH: EVQLVESGGGLVKPGGSLKLSCAASGFAFSSYDMSWVRQTPEKRLEWVAYISSGGGITYYPDTVKGRFTISRDNAKNTLYVQMSSLKSEDTAIYYCTRHDRDSWFAYWGQGTLVTVSA
VL: QIVLTQSPAIMSASPGEEGTMTCSASSSVRYMYWYRQKPGSSPRLLIYDTSNLASGVPVRFSGSGSGTSYSLTISRMEAEDAATYYCQQWSSYPPTFGGGTKLEMK
notes: Mouse hybridoma antibody (fusion F110); also called Murine 110-15; 110-15VL-Mouse/110-15VH-Mouse
B3 was tested, and the “Biacore SdrF bound” value [1] was 153, the binding result [2] was “no binding” and the “ELISA OD405” value [3] was 0.63 OD405. The Ka [4] was 1.29e+09 M⁻¹, the Kd [4] was 0.774 nM and the koff [4] was 0.000164 s⁻¹. For the same binder, the kon [4] was 212000 M⁻¹ s⁻¹, the binding result [7] was “no binding” and the “ELISA OD405” value [5] was 0.7 OD405. It also gave a Ka [6] of 1.3e+08 M⁻¹, a Kd [6] of 0.77 nM and a koff [6] of 0.00016 s⁻¹. It also gave a kon [6] of 210000 M⁻¹ s⁻¹.

B4: murine anti-SdrF monoclonal antibody 108-1 (antibody, V domains shown)
VH: EVQLQQSGAELVKPGASVKLSCTASGFNIKDTYIHWVKQRPEQGLEWIGRIDPANGNTHYDSQFQGKATITADTSSNTAYLQLSSLTSDDTAVYYCTRRVGYAMDYWGQGTSVTVSS
VL: DIVMTQSHKFMSTSVGDRVIITCKASQDVNTALAWYQQKPGQSPKLLIYSASYRYTGVPDRFTGSGSGTDFTFTISSVQAEDLAVYYCQQHYSTPPYTFGGGTKLEIK
notes: Mouse hybridoma antibody (Balb/C, fusion F108)
In the case of B4, the “Biacore SdrF bound” value [1] is reported as 146, the “ELISA OD405” value [3] is reported as 0.89 OD405 and the Ka [4] is reported as 6.2e+08 M⁻¹. For the same binder, the Kd [4] was 1.61 nM, the koff [4] was 0.000134 s⁻¹ and the kon [4] was 82900 M⁻¹ s⁻¹. For the same binder, the “ELISA OD405” value [5] was 0.99 OD405, the Ka [6] was 6.2e+08 M⁻¹ and the Kd [6] was 1.6 nM. The koff [6] was 0.00013 s⁻¹ and the kon [6] was 83000 M⁻¹ s⁻¹.

B5: Humanized 108-1 (antibody, V domains shown)
VH: QVQLVQSGAEVVKPGASVKLSCKASGFNIKDTYIHWVKQRPGQGLEWIGRIDPANGNTHYDSQFQGKATITADTSTSTAYLQLSSLRSEDTAVYYCTRRVGYAMDYWGQGTTVTVSS
VL: DIVMTQSQKFMSTSVGDRVTITCKASQDVNTALAWYQQKPGQSPKLLIYSASYRYTGVPSRFSGSGSGTDFTFTISSVQAEDLAVYYCQQHYSTPPYTFGGGTKLEIK
notes: Humanized (veneered) variable regions spliced into plasmids with 'the appropriate light or heavy chain constant region', expressed in NSO cells
With B5 the Ka [6] was 5.6e+08 M⁻¹, the Kd [6] was 1.8 nM and the koff [6] was 0.00017 s⁻¹. The kon [6] was 94000 M⁻¹ s⁻¹.

B6: Humanized 110-15 (antibody, V domains shown)
VH: EVQLVESGGGLVQPGGSLKLSCAASGFAFSSYDMSWVRQTPEKRLEWVAYISSGGGITYYPDTVKGRFTISRDNSKNTLYVQMSSLRAEDTAVYYCTRHDRDSWFAYWGQGTLVTVSS
VL: EIVLTQSPGTMSASPGERGTMSCSASSSVRYMYWYRQKPGQSPRLLIYDTSNLASGVPARFSGSGSGTSYSLTISRMEAEDAATYYCQQWSSYPPTFGGGTKLEMK
notes: Humanized (veneered) variable regions with 'the appropriate light or heavy chain constant region', expressed in NSO cells; also called 110-15VL-Hu/110-15VH-Hu
With B6 the Ka [6] was 1.4e+09 M⁻¹, the Kd [6] was 0.74 nM and the koff [6] was 0.00013 s⁻¹. It also gave a kon [6] of 170000 M⁻¹ s⁻¹.
